Source: publication doi:10.1101/2020.06.23.166439

Molecular target: tail tube protein (TTP) gp17.1 of bacteriophage SPP1 (bacteriophage SPP1)
Assay: cryo-EM structure + other: solid-state NMR

## tail tube protein (TTP) gp17.1 of bacteriophage SPP1 (natural protein)
  stoichiometry N: 6
